Source: article PMC11417369, “DNA sequence and chromatin differentiate sequence-specific transcription factor binding in the human malaria parasite Plasmodium falciparum”

T1: HDP1 homeodomain-like (Plasmodium falciparum, UniProt Q8IKH4 2990-3078)
T1 sequence: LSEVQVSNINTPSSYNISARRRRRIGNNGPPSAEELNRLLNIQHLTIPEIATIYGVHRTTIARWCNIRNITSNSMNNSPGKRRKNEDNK

B1: GTGCAC_site10384 (dsDNA)
DNA 1: TTTTCTTGGTTCAGTGTGCACTTATATATATATATA
DNA 2: TATATATATATATAAGTGCACACTGAACCAAGAAAA
B2: GTGCAC_site9990 (dsDNA)
DNA 1: TATATATATGTATATGTGCACAGTTTTCTTATTAAA
DNA 2: TTTAATAAGAAAACTGTGCACATATACATATATATA
B3: GTGCAC_site10327 (dsDNA)
DNA 1: AAATTATGCATCGAGGTGCGTCTTAAAATATAGTGG
DNA 2: CCACTATATTTTAAGACGCACCTCGATGCATAATTT
B4: GTGCAC_site10060 (dsDNA)
DNA 1: TCTTTTTCTTCTTATGTGCACATCAATTATGCTTCT
DNA 2: AGAAGCATAATTGATGTGCACATAAGAAGAAAAAGA
B5: GTGCAC_site9859 (dsDNA)
DNA 1: TACATAAATATATGTGTGCACAATTTCGTATATTTA
DNA 2: TAAATATACGAAATTGTGCACACATATATTTATGTA
B6: GTGCAC_site9637 (dsDNA)
DNA 1: GGAAAATATGTTTGTGTGCACAGCTAGCTATTTGTA
DNA 2: TACAAATAGCTAGCTGTGCACACAAACATATTTTCC
B7: GTGCAC_site10617 (dsDNA)
DNA 1: GAGGTCTTTTTTAATGTGCACATATATATATATATA
DNA 2: TATATATATATATATGTGCACATTAAAAAAGACCTC
B8: GTGCAC_site10672 (dsDNA)
DNA 1: AATTTCAAATTGTATGTGCACATGTAGAAGTACTTT
DNA 2: AAAGTACTTCTACATGTGCACATACAATTTGAAATT
B9: GTGCAC_site10696 (dsDNA)
DNA 1: AATGACTACATAATAGTGCAATATTAAAGAAAATTA
DNA 2: TAATTTTCTTTAATATTGCACTATTATGTAGTCATT
B10: GTGCAC_site9581 (dsDNA)
DNA 1: TTATTACACACATATGTGCACATATAAAAGTACACG
DNA 2: CGTGTACTTTTATATGTGCACATATGTGTGTAATAA
B11: GTGCAC_site10725 (dsDNA)
DNA 1: TTTTGTTATTTTGAAGTGCACTTTCCACTTAATATA
DNA 2: TATATTAAGTGGAAAGTGCACTTCAAAATAACAAAA
B12: GTGCAC_site9799 (dsDNA)
DNA 1: TATTATAATATATTTGTGCACATAATATCTCCGCTA
DNA 2: TAGCGGAGATATTATGTGCACAAATATATTATAATA
B13: GTGCAC_site9651 (dsDNA)
DNA 1: AATCGATAAAATGTTGTGCACATATTTTTATATTTA
DNA 2: TAAATATAAAAATATGTGCACAACATTTTATCGATT
B14: GTGCAC_site10777 (dsDNA)
DNA 1: ATAATATATACGTGTGTGCACATGACAAAAGCATAT
DNA 2: ATATGCTTTTGTCATGTGCACACACGTATATATTAT
B15: GTGCAC_site9497 (dsDNA)
DNA 1: TAATTGAGCAAATGAGTGCACAGCATAAAGTATAGT
DNA 2: ACTATACTTTATGCTGTGCACTCATTTGCTCAATTA
B16: GTGCAC_site10138 (dsDNA)
DNA 1: TATTTATAAATATGTGTGCACAATTTATTTTATAAT
DNA 2: ATTATAAAATAAATTGTGCACACATATTTATAAATA
B17: GTGCAC_site9742 (dsDNA)
DNA 1: GAAAAATTTTTATATGTGCACATGTTATATATAATT
DNA 2: AATTATATATAACATGTGCACATATAAAAATTTTTC
B18: GTGCAC_site9801 (dsDNA)
DNA 1: ATCATCTTTATTCAAGTGCACTGAAAATTTTTTATA
DNA 2: TATAAAAAATTTTCAGTGCACTTGAATAAAGATGAT
B19: GTGCAC_site9761 (dsDNA)
DNA 1: ACATAATATACTATTGTGCACATATATATATATATA
DNA 2: TATATATATATATATGTGCACAATAGTATATTATGT
B20: GTGCAC_site10106 (dsDNA)
DNA 1: ATATTTTATATATTTGTGCACAATATTATAATATAT
DNA 2: ATATATTATAATATTGTGCACAAATATATAAAATAT
B21: GTGCAC_site9405 (dsDNA)
DNA 1: TAAAAATAGGAGTGTGTGCACATAAATTATATACTA
DNA 2: TAGTATATAATTTATGTGCACACACTCCTATTTTTA
B22: GTGCAC_site10133 (dsDNA)
DNA 1: AATTTATATAATTTTGTGCACAATATTCATGTATAT
DNA 2: ATATACATGAATATTGTGCACAAAATTATATAAATT
B23: GTGCAC_site9657 (dsDNA)
DNA 1: CATAATTTAAAAAAGGTGCAAAATGGATAATATATA
DNA 2: TATATATTATCCATTTTGCACCTTTTTTAAATTATG
B24: GTGCAC_site10288 (dsDNA)
DNA 1: ATAGATCCTAATGTTGTGCACATGTAAATTAATATA
DNA 2: TATATTAATTTACATGTGCACAACATTAGGATCTAT
B25: GTGCAC_site9416 (dsDNA)
DNA 1: TTTCAAAAAAATAATGTGCACATTAGAAAATAAATA
DNA 2: TATTTATTTTCTAATGTGCACATTATTTTTTTGAAA
B26: GTGCAC_site10550 (dsDNA)
DNA 1: TAAACGTTAGTATGTGTGCACATTAGTAATTTAAAA
DNA 2: TTTTAAATTACTAATGTGCACACATACTAACGTTTA
B27: GTGCAC_site10701 (dsDNA)
DNA 1: TAATACATAAATAATGTGCACATGGAAATATATCTT
DNA 2: AAGATATATTTCCATGTGCACATTATTTATGTATTA
B28: GTGCAC_site10605 (dsDNA)
DNA 1: GAAGTAGATGGAAAAGTGCACTGTAATGGTTATATT
DNA 2: AATATAACCATTACAGTGCACTTTTCCATCTACTTC
B29: GTGCAC_site10212 (dsDNA)
DNA 1: TATATATATATATATGTGCACATATATATGATATTA
DNA 2: TAATATCATATATATGTGCACATATATATATATATA
B30: GTGCAC_site10602 (dsDNA)
DNA 1: GTTGTATACAATAATGTGCACATATTAATTTGAACT
DNA 2: AGTTCAAATTAATATGTGCACATTATTGTATACAAC
B31: GTGCAC_site9584 (dsDNA)
DNA 1: TGTAATAATATTTATGTGCACATATATTAAACTATA
DNA 2: TATAGTTTAATATATGTGCACATAAATATTATTACA
B32: GTGCAC_site10422 (dsDNA)
DNA 1: ATCAATAAATAAAATGTGCACATAATATATTAATAC
DNA 2: GTATTAATATATTATGTGCACATTTTATTTATTGAT
B33: GTGCAC_site10120 (dsDNA)
DNA 1: AAAAACAAACTGTGCATGCACCAAAAAAAAAAAAAA
DNA 2: TTTTTTTTTTTTTTGGTGCATGCACAGTTTGTTTTT
B34: GTGCAC_site10596 (dsDNA)
DNA 1: AAAATTTATAGTATGGTGCATAAAAATATATATATA
DNA 2: TATATATATATTTTTATGCACCATACTATAAATTTT
B35: GTGCAC_site10210 (dsDNA)
DNA 1: ATTGAATATGGATATGTGCACATATGTATATAAGTA
DNA 2: TACTTATATACATATGTGCACATATCCATATTCAAT
B36: GTGCAC_site10136 (dsDNA)
DNA 1: ATGATCTGTTTGTTTGTGCACATATATATATATTAA
DNA 2: TTAATATATATATATGTGCACAAACAAACAGATCAT
B37: GTGCAC_site9896 (dsDNA)
DNA 1: TCTTACGGATTCATTGTGCACATATATATATATATA
DNA 2: TATATATATATATATGTGCACAATGAATCCGTAAGA
B38: GTGCAC_site10127 (dsDNA)
DNA 1: ACATATAAATATTGTGTGCACACACATAATATATAT
DNA 2: ATATATATTATGTGTGTGCACACAATATTTATATGT
B39: GTGCAC_site10461 (dsDNA)
DNA 1: TTTATACATACATTCGTGCACATACGTATAACATAT
DNA 2: ATATGTTATACGTATGTGCACGAATGTATGTATAAA
B40: GTGCAC_site10407 (dsDNA)
DNA 1: CCTTTTTATCTTTTTGTGCACAGACCTTTTTTAAAT
DNA 2: ATTTAAAAAAGGTCTGTGCACAAAAAGATAAAAAGG
B41: GTGCAC_site10307 (dsDNA)
DNA 1: AAATAATTAGAAATAGTGCACATAATTAAGGGATAC
DNA 2: GTATCCCTTAATTATGTGCACTATTTCTAATTATTT
B42: GTGCAC_site10419 (dsDNA)
DNA 1: TTTTCTTTTTTTTTTGTGCACATAATATATAATTAT
DNA 2: ATAATTATATATTATGTGCACAAAAAAAAAAGAAAA
B43: GTGCAC_site9621 (dsDNA)
DNA 1: TATATATATAAGATTGTGCACATTAAAATGATAGAA
DNA 2: TTCTATCATTTTAATGTGCACAATCTTATATATATA
B44: GTGCAC_site10480 (dsDNA)
DNA 1: GGTATTTATGGACGCGTGCACACACATATGAACAAA
DNA 2: TTTGTTCATATGTGTGTGCACGCGTCCATAAATACC

What follows are binders tested against T1, HDP1 homeodomain-like (assay: gcPBM; about 25 ug protein; PBS, 1% milk, 0.2 mg/ml BSA, salmon testes DNA, 0.03% Triton X-100). Settings: tags: N-terminal GST (pGEX-4T-1), kept; chain copies: 2; label: surface-attached array probe.
For B1, the binding signal was 10.2 ln median PBM intensity, better of two orientations. For B2, the binding signal was 11.1 ln median PBM intensity, better of two orientations. B3 was tested, and the binding signal was 11.2 ln median PBM intensity, better of two orientations. With B4 the binding signal was 10.8 ln median PBM intensity, better of two orientations. B5 was tested, and the binding signal was 11.1 ln median PBM intensity, better of two orientations. B6 was tested, and the binding signal was 11 ln median PBM intensity, better of two orientations. With B7 the binding signal was 11 ln median PBM intensity, better of two orientations. With B8 the binding signal was 11.1 ln median PBM intensity, better of two orientations. With B9 the binding signal was 10.4 ln median PBM intensity, better of two orientations. For B10, the binding signal was 11.1 ln median PBM intensity, better of two orientations. For B11, the binding signal was 10.7 ln median PBM intensity, better of two orientations. With B12 the binding signal was 11.1 ln median PBM intensity, better of two orientations. In the case of B13, the binding signal is reported as 11.2 ln median PBM intensity, better of two orientations. B14 was tested, and the binding signal was 11.1 ln median PBM intensity, better of two orientations. With B15 the binding signal was 10.7 ln median PBM intensity, better of two orientations. For B16, the binding signal was 11 ln median PBM intensity, better of two orientations. For B17, the binding signal was 11.2 ln median PBM intensity, better of two orientations. B18 was tested, and the binding signal was 11.2 ln median PBM intensity, better of two orientations. With B19 the binding signal was 11.2 ln median PBM intensity, better of two orientations. In the case of B20, the binding signal is reported as 10.8 ln median PBM intensity, better of two orientations. In the case of B21, the binding signal is reported as 11.2 ln median PBM intensity, better of two orientations. In the case of B22, the binding signal is reported as 11.2 ln median PBM intensity, better of two orientations. B23 was tested, and the binding signal was 10.1 ln median PBM intensity, better of two orientations. B24 was tested, and the binding signal was 11 ln median PBM intensity, better of two orientations. With B25 the binding signal was 10.5 ln median PBM intensity, better of two orientations. For B26, the binding signal was 10.6 ln median PBM intensity, better of two orientations. In the case of B27, the binding signal is reported as 11.2 ln median PBM intensity, better of two orientations. With B28 the binding signal was 10.6 ln median PBM intensity, better of two orientations. For B29, the binding signal was 10.3 ln median PBM intensity, better of two orientations. With B30 the binding signal was 11.2 ln median PBM intensity, better of two orientations. B31 was tested, and the binding signal was 11.1 ln median PBM intensity, better of two orientations. In the case of B32, the binding signal is reported as 11.1 ln median PBM intensity, better of two orientations. With B33 the binding signal was 10.3 ln median PBM intensity, better of two orientations. For B34, the binding signal was 10.6 ln median PBM intensity, better of two orientations. With B35 the binding signal was 11.1 ln median PBM intensity, better of two orientations. In the case of B36, the binding signal is reported as 11.3 ln median PBM intensity, better of two orientations. B37 was tested, and the binding signal was 11.1 ln median PBM intensity, better of two orientations. B38 was tested, and the binding signal was 10.5 ln median PBM intensity, better of two orientations. For B39, the binding signal was 10.1 ln median PBM intensity, better of two orientations. With B40 the binding signal was 11.2 ln median PBM intensity, better of two orientations. With B41 the binding signal was 10.9 ln median PBM intensity, better of two orientations. In the case of B42, the binding signal is reported as 11.2 ln median PBM intensity, better of two orientations. With B43 the binding signal was 11.1 ln median PBM intensity, better of two orientations. With B44 the binding signal was 10.4 ln median PBM intensity, better of two orientations.
